Experimental data published in publication PMC9132103.

Tests used:
[1] = target: human IL-10Rβ extracellular domain (residues 20-220), biotinylated, from Hi5 cells (human) (UniProt Q08334)
[2] = target: Clone 5.1 (super-10) in the presence of IL-10Rα ECD (UniProt P22301)
[3] = target: Clone 5.1 (super-10), affinity-matured mono-IL-10 clone (UniProt P22301)

Chain of human IL-10Rβ extracellular domain (residues 20-220), biotinylated, from Hi5 cells (Q08334 20-220): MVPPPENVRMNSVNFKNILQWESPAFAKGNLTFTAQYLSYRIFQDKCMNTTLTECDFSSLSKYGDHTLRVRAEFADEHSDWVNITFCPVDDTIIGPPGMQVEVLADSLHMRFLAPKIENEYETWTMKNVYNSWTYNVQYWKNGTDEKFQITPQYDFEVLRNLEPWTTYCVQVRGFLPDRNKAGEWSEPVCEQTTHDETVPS
Chain of human IL-10Rβ extracellular domain (residues 20-220), biotinylated, from Hi5 cells (human) (Q08334 20-220): as above

Row | phospho-STAT3 by flow cytometry, YT-1 cells, relative to WT IL-10 [1] | Kd [2] | Kd [3] | Substance
1 | 50% | – | – | IL-10 D25A/E96A (10-DE) (from UniProt P22301 19-178) (ligand)
2 | 50% | – | – | IL-10 D25K (from UniProt P22301 19-178) (ligand)
3 | – | 30 nM | 70 nM | human IL-10Rβ extracellular domain (residues 20-220), biotinylated, from Hi5 cells (from UniProt Q08334 20-220) (receptor)
